Data as given in publication PMC6412629, “β-Galactosidase from Lactobacillus helveticus DSM 20075: Biochemical Characterization and Recombinant Expression for Applications in Dairy Industry” (International Journal of Molecular Sciences, 2019).

Substrate: O=[N+]([O-])c1ccccc1O[C@@H]1O[C@H](CO)[C@H](O)[C@H](O)[C@H]1O
Assay: purified protein
Assay type: biochemical, Lactobacillus helveticus
Settings: 50 mM sodium phosphate pH 6.5, 30 °C, oNPG 0.5-22 mM, substrate inhibition seen

B1: recombinant β-galactosidase from L. helveticus (EcoliBL21Lhβ-gal), LacLM (Lactobacillus helveticus; Q7WTB4:Q2E) (protein)
chain 1: MEANINWLDNPEVFRVNQLPAHSDHPFFRDYREWQKQHSSYQQSLNGKWKFHFSANPMDRPQDFYQRDFDSSNFDSIPVPSEIELSNYTQNQYINVLFPWEGKIFRRPAYALDPNDHEEGSFSKGADNTVGSYLKRFDLSSALIGKDVHIKFEGVEQAMYVWLNGHFVGYAEDSFTPSEFDLTPYIQDKDNLLAVEVFKHSTASWLEDQDMFRFSGIFRSVELLGIPATHLMDMDLKPRVADNYQDGIFNLKLHFIGKKAGSFHLLVKDIKGHTLLEKNEDIKENVQINNEKFENVHLWNNHDPYLYQLLIEVYDEQQNLLELIPFQFGFRRIEISPEKVVLLNGKRLIINGVNRHEWDAKRGRSITMSDMTTDINTFKENNINAVRTCHYPNQIPWYYLCDQNGIYVMAENNLESHGTWQKMGEIEPSDNVPGSIPQWKEAVIDRARINYETFKNHTSILFWSLGNESYAGDNIIAMNEFYKSHDDTRLVHYEGVVHRPELKDKISDVESCMYLPPKKVEEYLQNDPPKPFMECEYMHDMGNSDGGMGSYIKLLDKYPQYFGGFIWDFIDQALLVHDEISGHDVLRYGGDFDDRHSDYEFSGDGLMFADRTPKPAMQEVRYYYGLHK
chain 2: MDYTNNQLHIIYGDATLGVNGKDFQYIFSYERGGLESLKVHGKEWLYRVPTPTFWRATTDNDRGSGFNLKAAQWLGADMFTKCTDIHLKVDRHDFAELPIAPFNNKFSNHEYAKSAEISFTYQTLTTPATNAKIIYNIDDVGHIKVTMRYYGKKGLPPLPVIGIRLIMPTAATGFDYEGLSGETYPDRMAGAKEGKFHIDGLPVTEYLVPQENGMHMQTKKLTINRETTQNNVDRTNEKFSLSIQQAEKPFNFSCLPYTAEELENATHIEELPLVRRTVLVIAGAVRGVGGIDSWGTDVESAYHINPELDHEFSFILN
notes: overlapping lacLM genes in pET-21d(+) (NcoI/XhoI); C-terminal His-tag (vector), follows lacM end; E. coli BL21 Star (DE3), HisTrap purified; heterodimer ~109 kDa
B1 was tested, and the Km was 1400 ± 300 µM, the Vmax was 476 µmol/min/mg and the kcat was 865 ± 120 s⁻¹. For the same protein, the kcat/Km was 618000 M⁻¹ s⁻¹.
